Results on one substance are retold here after article PMC7736355.

Assay [1] has as its target VP1 protein from GI.1 Norwalk strain (GI.1 WT) (human norovirus GI.1 Norwalk strain). The assay is described as follows: negative staining electron microscopy; VLP samples at ~0.1 mg/mL (0.01–0.05 mg/mL when fragments were present) in 10 mM HEPES pH 7.0, 150 mM NaCl; 0.75% uranyl formate; reference-free 2D class averages.
Assay [2] has the same target. The assay is described as follows: SEC; analytical size-exclusion chromatography, Superdex 200 Increase 10/300 GL in PBS, 200 µg VLPs; fractions analysed by SDS–PAGE. On the technique in general: In gel filtration, larger molecules generally elute earlier.

Usually stoichiometry N stands for the number of molecules, sites or subunits per partner or assembly. For “VP1 protein from GI.1 Norwalk strain (GI.1 WT) (natural protein)”, in assay [1], the stoichiometry N was 2. Moreover, in assay [2], the fraction of the sample present as VP1 dimers (rest in the void peak as non-dissociated VLPs) turned out to be 20% and the stoichiometry N came to 2.
